According to article PMC11208152, “Dynamic Arabidopsis P5CS filament facilitates substrate channelling” (Nature Plants, 2024):

How the values were obtained:
[1] = target: the molecule itself; assay: negative-staining EM; purified protein about 2-4 μM incubated at 25 °C with substrates (ATP, glutamate, both, or all substrates = mixed state) at the concentrations of the activity assay; step seen: oligomers (tetramers) into filaments
[2] = target: the molecule itself; assay: cryo-EM structure; mixed state: about 5 μM purified protein in reaction buffer with all substrates (25 mM Tris-HCl pH 8.0, 150 mM NaCl, 20 mM glutamate, 10 mM MgCl2, 5 mM ATP, 0.5 mM NADPH), on ice about 30 min (AtP5CS1) or 60 min (AtP5CS2); filament of tetrameric helical units, focus refinement on the GK tetramer

B1: AtP5CS2-GK, truncated AtP5CS2 consisting of residues 1-290 (glutamate kinase domain) (domain or fragment, Arabidopsis thaliana, UniProt P54888 1-290, looked up)
chain: MTEIDRSRAFAKDVKRIVVKVGTAVVTGKGGRLALGRLGAICEQLAELNSDGFEVILVSSGAVGLGRQRLRYRQLVNSSFADLQKPQMELDGKACAGVGQSSLMAYYETMFDQLDVTVAQMLVTDSSFRDKDFRKQLSETVKAMLRMRVIPVFNENDAISTRRAPYKDSTGIFWDNDSLAALLSLELKADLLILLSDVEGLYTGPPSDSTSKLIHTFIKEKHQDEITFGEKSKLGRGGMTAKVKAAVNAAYGGVPVIITSGYAAENISKVLRGLRVGTLFHQDAHLWAPV
notes: Delta-1-pyrroline-5-carboxylate synthase 2 (P5CS2) of Arabidopsis thaliana, residues 1-290, the glutamate kinase (GK) domain; probably made as His6-SUMO fusion in E. coli and cleaved with ULP1 like the full-length AtP5CS2 (surmised); also called AtP5CS2 GK domain
binding result [1]: binds

B2: Arabidopsis thaliana delta-1-pyrroline-5-carboxylate synthase 2 (AtP5CS2), wild type (enzyme, UniProt P54888 1-726, looked up)
chain: MTEIDRSRAFAKDVKRIVVKVGTAVVTGKGGRLALGRLGAICEQLAELNSDGFEVILVSSGAVGLGRQRLRYRQLVNSSFADLQKPQMELDGKACAGVGQSSLMAYYETMFDQLDVTVAQMLVTDSSFRDKDFRKQLSETVKAMLRMRVIPVFNENDAISTRRAPYKDSTGIFWDNDSLAALLSLELKADLLILLSDVEGLYTGPPSDSTSKLIHTFIKEKHQDEITFGEKSKLGRGGMTAKVKAAVNAAYGGVPVIITSGYAAENISKVLRGLRVGTLFHQDAHLWAPVVDTTSRDMAVAARESSRKLQALSSEDRKQILHDIANALEVNEKTIKAENDLDVAAAQEAGYEESLVARLVMKPGKISSLAASVRQLAEMEDPIGRVLKKTQVADDLILEKTSSPIGVLLIVFESRPDALVQIASLAIRSGNGLLLKGGKEARRSNAILHKVITDAIPETVGGKLIGLVTSREEIPDLLKLDDVIDLVIPRGSNKLVSQIKNSTKIPVLGHADGICHVYVDKSGKLDMAKRIVSDAKLDYPAACNAMETLLVHKDLEQNGFLDDLIYVLQTKGVTLYGGPRASAKLNIPETKSFHHEYSSKACTVEIVEDVYGAIDHIHQHGSAHTDCIVTEDSEVAEIFLRQVDSAAVFHNASTRFSDGFRFGLGAEVGISTSRIHARGPVGVEGLLTTRWIMRGKGQVVDGDNGIVYTHKDLPVLQRTEAVENGI
notes: Delta-1-pyrroline-5-carboxylate synthase 2 (P5CS2) of Arabidopsis thaliana; In the filament the helical unit is a tetramer (GK tetramer core, two GPR dimers); Only the GK tetramer was modelled at high resolution; also called AtP5CS2-WT; WT AtP5CS2; source: E. coli Rosetta (DE3), purified (Ni-NTA, SUMO-tag removed with yeast ULP1, Superose 6 Increase SEC); not shown: His6, N-terminal, cleaved; …
stoichiometry N [2]: 4

B3: Arabidopsis thaliana delta-1-pyrroline-5-carboxylate synthase 1 (AtP5CS1) (enzyme, UniProt P54887 1-717, looked up)
chain: MEELDRSRAFARDVKRIVVKVGTAVVTGKGGRLALGRLGALCEQLAELNSDGFEVILVSSGAVGLGRQRLRYRQLVNSSFADLQKPQTELDGKACAGVGQSSLMAYYETMFDQLDVTAAQLLVNDSSFRDKDFRKQLNETVKSMLDLRVIPIFNENDAISTRRAPYQDSSGIFWDNDSLAALLALELKADLLILLSDVEGLYTGPPSDPNSKLIHTFVKEKHQDEITFGDKSRLGRGGMTAKVKAAVNAAYAGIPVIITSGYSAENIDKVLRGLRVGTLFHQDARLWAPITDSNARDMAVAARESSRKLQALSSEDRKKILLDIADALEANVTTIKAENELDVASAQEAGLEESMVARLVMTPGKISSLAASVRKLADMEDPIGRVLKKTEVADGLVLEKTSSPLGVLLIVFESRPDALVQIASLAIRSGNGLLLKGGKEARRSNAILHKVITDAIPETVGGKLIGLVTSREEIPDLLKLDDVIDLVIPRGSNKLVTQIKNTTKIPVLGHADGICHVYVDKACDTDMAKRIVSDAKLDYPAACNAMETLLVHKDLEQNAVLNELIFALQSNGVTLYGGPRASKILNIPEARSFNHEYCAKACTVEVVEDVYGAIDHIHRHGSAHTDCIVTEDHEVAELFLRQVDSAAVFHNASTRFSDGFRFGLGAEVGVSTGRIHARGPVGVEGLLTTRWIMRGKGQVVDGDNGIVYTHQDIPIQA
notes: Delta-1-pyrroline-5-carboxylate synthase 1 (P5CS1) of Arabidopsis thaliana; also called His6-AtP5CS1; not shown: His6, N-terminal, kept
stoichiometry N [2]: 4
